One may read the EC50 (read off the curve) as the concentration that produces a half-maximal response.

This is an account of results in patent US20120276102A1 (Pfizer, published 2012).

In assay [1] the target is T1, human complement component C1q (human, UniProt P02745 23-245; P02746 28-253; P02747 29-245).
T1 construct: Native C1q in diluted human serum
In words: C1q ELISA: antibody coated on the plate, human serum 1:50, chicken anti-human C1q and HRP anti-chicken IgY. As for the experimental part:
In order to determine whether cell-surface binding by anti-IL-21R antibodies is likely to lead to complement-dependent cytotoxicity (CDC), the antibodies were tested for their ability to bind to the complement component C1q in an ELISA. […] Diluted antibodies (100 μl) were coated onto a COSTAR® high-binding ELISA plate (Corning Life Sciences, Lowell, Mass.) overnight at 4° C. Plates were washed 3× with PBS/Tween-20 and blocked with 200 μl of blocking buffer (0.1 M NaPO₄, 0.1 M NaCl, 0.1% gelatin, 0.01% Tween) for 1 hr at RT. Human serum previously determined to contain C1q (Quidel, San Diego, Calif.) was diluted 1:50 in PBS. After 1 hr of blocking, plates were washed and 100 μl of diluted serum was added to each well and incubated for 2 hr at RT on a shaker. Following three washes, 100 μl A of 0.1 μg/ml chicken polyclonal anti-human C1q antibody (AbCam, Cambridge, Mass.) was added to each well and incubated for 1 hr at RT. Plates were again washed and incubated with 100 μA of a rabbit polyclonal antibody to chicken Ig-Y—HRP diluted 1:4000 (AbCam) for 1 hr at RT. Plates were washed and developed with TMB for 5 min, followed by 50 μA of 1 M H₂SO₄ to stop the reaction, and then read at 450 nm.
(An ELISA detects its analyte on a solid surface through an enzyme-linked reagent.)

The target in assay [2] is T2, rat IL-21R expressed on cells (rat).
T2 construct: whole, on cells
Put plainly: cell-based ELISA on CHO cells transiently expressing rat IL-21R; HRP anti-human IgG, A450. A digest of the protocol: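 CHO-PA-Dukx cells transfected 48 hr before assay, washed in PBS with 0.9 mM CaCl₂/0.45 mM MgCl₂ and blocked 1 hr at RT in 5% nonfat milk. Serially diluted conditioned media of transiently expressed IgGs bound 1 hr at RT; detection by TMB developed to saturation, acid-stopped.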

In assay [3] the target is T3, human soluble IL-4R (human, UniProt P24394 26-232, limits assumed).
T3 construct: also called human sIL-4R
In words: SPR, Ab captured. A digest of the protocol:
(§1)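 SPR at 25 °C in HBS/EP: antibodies from conditioned media captured (500-700 RU) on amine-coupled anti-human IgG or anti-murine Ig on CM5 chip. 50 nM analyte injected, association 120 s and dissociation 180 s; glycine pH 1.5 regeneration, double-referenced sensorgrams.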

Assay [4] has as its target T4, human IL-13-His/FLAG (human, UniProt P35225 35-146, limits assumed).
T4 construct: Unrelated His/FLAG-tagged control; also called human IL-13-H/F
Put plainly: SPR, Ab captured. A digest of the protocol:
as §1
For orientation: In SPR one partner is held on a chip, and binding of the other changes the refractive index at the surface.

In assay [5] the target is T5, human IL-21R expressed on cells (human, UniProt Q9HBE5 20-538). In words: cell-based or functional assay.
T5 sequence (Q9HBE5 20-538 limits assumed): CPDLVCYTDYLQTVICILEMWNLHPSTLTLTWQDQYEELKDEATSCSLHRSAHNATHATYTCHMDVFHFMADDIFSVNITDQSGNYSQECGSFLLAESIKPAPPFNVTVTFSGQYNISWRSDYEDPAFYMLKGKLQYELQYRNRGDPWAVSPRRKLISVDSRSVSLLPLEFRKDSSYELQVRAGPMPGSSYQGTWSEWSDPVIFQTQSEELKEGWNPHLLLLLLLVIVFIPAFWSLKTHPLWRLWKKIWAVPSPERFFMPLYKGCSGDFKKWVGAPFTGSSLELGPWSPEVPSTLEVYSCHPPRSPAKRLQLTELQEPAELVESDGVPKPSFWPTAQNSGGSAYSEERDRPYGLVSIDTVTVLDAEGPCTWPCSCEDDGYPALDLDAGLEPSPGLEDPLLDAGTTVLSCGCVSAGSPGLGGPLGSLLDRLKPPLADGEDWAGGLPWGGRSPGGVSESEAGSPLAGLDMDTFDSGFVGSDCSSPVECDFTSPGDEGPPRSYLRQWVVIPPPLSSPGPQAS
Assay [6] concerns the target murine IL-21R expressed on cells (murine, UniProt Q9JHX3 20-529). In words: cell-based or functional assay.
Assay [7] addresses T2, rat IL-21R expressed on cells. In words: cell-based or functional assay.
Assay [8] deals with T6, rabbit IL-21R-Fc isoform 2 (rabbit).
T6 construct: extracellular domain
Put plainly: ELISA; competitor 10% conditioned medium containing rabbit IL-21.

The target in assay [9] is T7, rabbit IL-21R-Fc isoform 1 (rabbit).
T7 construct: extracellular domain
The assay is described as above.

Assay [10] addresses T5, human IL-21R expressed on cells. In words: cell-based or functional assay. The source holds these as a separate data set.

Chain of murine IL-21R expressed on cells (Q9JHX3 20-529 limits assumed): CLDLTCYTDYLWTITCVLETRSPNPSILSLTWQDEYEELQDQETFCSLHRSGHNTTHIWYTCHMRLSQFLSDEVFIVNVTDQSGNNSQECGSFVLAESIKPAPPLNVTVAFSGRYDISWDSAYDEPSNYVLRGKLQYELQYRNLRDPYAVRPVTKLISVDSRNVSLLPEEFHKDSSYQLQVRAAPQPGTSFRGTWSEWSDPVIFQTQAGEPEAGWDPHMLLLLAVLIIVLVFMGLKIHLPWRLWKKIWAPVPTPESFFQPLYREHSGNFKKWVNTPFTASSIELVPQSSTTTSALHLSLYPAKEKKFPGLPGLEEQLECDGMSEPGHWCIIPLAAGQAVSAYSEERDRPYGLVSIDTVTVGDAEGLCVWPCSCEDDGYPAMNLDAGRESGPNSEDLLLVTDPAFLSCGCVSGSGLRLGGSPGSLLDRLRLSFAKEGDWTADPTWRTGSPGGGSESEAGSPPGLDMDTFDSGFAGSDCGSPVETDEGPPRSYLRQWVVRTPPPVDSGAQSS
T1 sequence (P02745 23-245, chain 1 of 3): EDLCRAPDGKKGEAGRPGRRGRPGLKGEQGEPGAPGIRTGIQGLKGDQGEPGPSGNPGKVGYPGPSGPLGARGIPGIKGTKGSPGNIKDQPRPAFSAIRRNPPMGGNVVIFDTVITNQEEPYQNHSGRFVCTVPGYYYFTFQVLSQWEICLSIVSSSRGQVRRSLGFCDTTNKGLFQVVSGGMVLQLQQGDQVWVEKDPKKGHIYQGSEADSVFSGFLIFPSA
T1 sequence (P02746 28-253, chain 2 of 3): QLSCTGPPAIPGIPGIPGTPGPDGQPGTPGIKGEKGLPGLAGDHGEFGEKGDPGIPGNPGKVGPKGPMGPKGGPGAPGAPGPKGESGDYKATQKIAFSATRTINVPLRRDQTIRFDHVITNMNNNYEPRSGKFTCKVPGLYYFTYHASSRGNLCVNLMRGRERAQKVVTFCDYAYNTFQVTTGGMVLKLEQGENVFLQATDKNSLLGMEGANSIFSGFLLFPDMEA
T1 sequence (P02747 29-245, chain 3 of 3): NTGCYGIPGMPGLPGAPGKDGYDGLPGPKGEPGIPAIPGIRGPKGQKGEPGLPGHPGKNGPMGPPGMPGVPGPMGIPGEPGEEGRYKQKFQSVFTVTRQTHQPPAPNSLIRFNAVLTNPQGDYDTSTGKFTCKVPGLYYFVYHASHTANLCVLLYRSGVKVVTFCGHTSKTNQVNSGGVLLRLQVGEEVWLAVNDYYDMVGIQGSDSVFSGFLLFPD
T4 sequence (P35225 35-146 limits assumed): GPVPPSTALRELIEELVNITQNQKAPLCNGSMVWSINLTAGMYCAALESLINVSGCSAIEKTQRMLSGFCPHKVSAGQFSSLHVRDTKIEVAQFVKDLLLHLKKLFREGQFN

B1: AbP (antibody, human IgG1, V domains shown)
VH: QVQLQESGPGLVKPSETLSLTCAVSGYSISSGYYWGWIRQPPGKGLEWIGSISHTGNTYYNPPLKSRVTISVDTSKNQFSLKLSSVTAADTAVYYCARGGGISRPEYWGQGTLVTVSS
VL: SSELTQDPAVSVALGQTVRITCQGDSLRTYYASWYQQKPGQAPVLVIYGKHKRPSGIPDRFSGSSSGNTASLTITGAQAEDEADYYCVSRSAKGNPHVLFGGGTQLTVL
notes: CDR3 graft, residue limits derived as for m29; also called VHP/VL20; VHPTM/VL20
With B1, the binding result in [1] is “no binding”.

B2: AbO (antibody, human IgG1, V domains shown)
VH: QVQLQESGPGLVKPSETLSLTCAVSGYSISSGYYWGWIRQPPGKGLEWIGSISHTGNTYYNPPLKSRVTISVDTSKNQFSLKLSSVTAADTAVYYCARGGGISRPEYWGQGTLVTVSS
VL: SSELTQDPAVSVALGQTVRITCQGDSLRTYYASWYQQKPGQAPVLVIYGKHKRPSGIPDRFSGSSSGNTASLTITGAQAEDEADYYCVTRSAKGNPHVLFGGGTQLTVL
notes: CDR3 graft, residue limits derived as for m29; also called VHP/VL16; VHPTM/VL16
As to B2, in assay [2], the “EC50 (read off the curve)” value is approximately 0.4 nM. Further, in [1], the binding result is “no binding”.

B3: parental 18A5 antibody (antibody, V domains shown)
VH: QVQLQESGPGLVKTSETLSLTCAVSGYSISSGYYWGWIRQPPGKGLEWIGSISHTGNTYYNPPLKSRVTISVDTSKNQFSLKLSSVTAADTAVYYCARGGGISRPEYWGKGTLVTVSS
VL: SSELTQDPPVSVALGQTVTLTCQGDSLRTYYASWYQQKSGQAPILLLYGKHKRPSGIPDRFSGSTSGDTASLTITGAQAEDEADYYCNSRDSSGNPHVLFGGGTQLTVL
notes: also called 18A5 IgG
Regarding B3, the binding result in assay [3] is given as “no binding (tested: 50 nM)”. Also, the binding result in [4] is listed as “no binding (tested: 50 nM)”. In assay [5], the “Human IL-21R-BaF3 Neutralization IC50” value is 1.71 nM and the “Human IL-21R-TF1 Neutralization IC50” value was 14 nM. The “Murine IL-21R-BaF3 Neutralization IC50” value in assay [6] was found to be 177 nM.

B4: AbU (antibody, human IgG1, V domains shown)
VH: QVQLQESGPGLVKPSETLSLTCAVSGYSISSGYYWGWIRQPPGKGLEWIGSISHTGNTYYNPPLKSRVTISVDTSKNQFSLKLSSVTAADTAVYYCARGGGISRPEYWGQGTLVTVSS
VL: SSELTQDPAVSVALGQTVRITCQGDSLRTYYASWYQQKPGQAPVLVIYGKHKRPSGIPDRFSGSSSGNTASLTITGAQAEDEADYYCTTRSNKGNPHVLFGGGTQLTVL
notes: CDR3 graft, residue limits derived as for m29; also called VHP/VL25; VHPTM/VL25
On to B4, for which, in assay [7], the “IC50, rat T cell proliferation, experiment 1” value came out at 173 nM and the “IC50, rat T cell proliferation, experiment 2” value amounted to 105 nM. Further, the binding result in assay [1] is on record as “no binding”.

B5: AbT (antibody, human IgG1, V domains shown)
VH: QVQLQESGPGLVKPSETLSLTCAVSGYSISSGYYWGWIRQPPGKGLEWIGSISHTGNTYYNPPLKSRVTISVDTSKNQFSLKLSSVTAADTAVYYCARGGGISRPEYWGQGTLVTVSS
VL: SSELTQDPAVSVALGQTVRITCQGDSLRTYYASWYQQKPGQAPVLVIYGKHKRPSGIPDRFSGSSSGNTASLTITGAQAEDEADYYCVARSNKGNPHVLFGGGTQLTVL
notes: CDR3 graft, residue limits derived as for m29; also called VHP/VL9; VHPTM/VL9
As to B5, the “EC50 (read off the curve)” value in assay [2] was approximately 1 nM. For the same molecule, in assay [5], the “Human IL-21R-BaF3 Neutralization IC50” value came out at 0.3 nM and the “Human IL-21R-TF1 Neutralization IC50” value worked out at 2.32 nM. Moreover, the “Murine IL-21R-BaF3 Neutralization IC50” value in [6] is 0.05 nM.

B6: AbR (antibody, human IgG1, V domains shown)
VH: QVQLQESGPGLVKPSETLSLTCAVSGYSISSGYYWGWIRQPPGKGLEWIGSISHTGNTYYNPPLKSRVTISVDTSKNQFSLKLSSVTAADTAVYYCARFMGFGRPEYWGQGTLVTVSS
VL: SSELTQDPAVSVALGQTVRITCQGDSLRTYYASWYQQKPGQAPVLVIYGKHKRPSGIPDRFSGSSSGNTASLTITGAQAEDEADYYCVTRSVKGNPHVLFGGGTQLTVL
notes: CDR3 graft, residue limits derived as for m29; also called VH3/VL18; VH3DM/VL18
Turning to B6, the “EC50 (read off the curve)” value in [2] was approximately 0.7 nM. Further, in assay [5], the “Human IL-21R-BaF3 Neutralization IC50” value came out at 0.56 nM and the “Human IL-21R-TF1 Neutralization IC50” value was 1.63 nM. Also, the “Murine IL-21R-BaF3 Neutralization IC50” value in assay [6] came out at 0.34 nM.

B7: AbS (antibody, V domains shown)
VH: QVQLQESGPGLVKPSETLSLTCAVSGYSISSGYYWGWIRQPPGKGLEWIGSISHTGNTYYNPPLKSRVTISVDTSKNQFSLKLSSVTAADTAVYYCARGGGISRPEYWGQGTLVTVSS
VL: SSELTQDPAVSVALGQTVRITCQGDSLRTYYASWYQQKPGQAPVLVIYGKHKRPSGIPDRFSGSSSGNTASLTITGAQAEDEADYYCMSRSIWGNPHVLFGGGTQLTVL
notes: CDR3 graft, residue limits derived as for m29; also called VHP/VL6; VHPTM/VL6
Regarding B7, in [7], the “IC50, rat T cell proliferation, experiment 1” value stood at 36 nM and the “IC50, rat T cell proliferation, experiment 2” value was found to be 27.1 nM. For the same molecule, the “EC50 (read off the curve)” value in assay [2] is approximately 1 nM. Also, the “fold reduction of binding in the presence of rabbit IL-21” value in assay [8] was approximately 10 fold. In assay [9], the “fold reduction of binding in the presence of rabbit IL-21” value is approximately 10 fold. Moreover, in assay [5], the “Human IL-21R-BaF3 Neutralization IC50” value amounted to 0.68 nM and the “Human IL-21R-TF1 Neutralization IC50” value is 6.67 nM. Besides, the “Murine IL-21R-BaF3 Neutralization IC50” value in assay [6] stood at 0.04 nM. In assay [1], the binding result is given as “no binding”. In assay [10], the “IC50, IL-21-induced CD19 expression in human whole blood” value came to 7 ng/mL; the “IC50, IL-21-induced GZMB expression in human whole blood” value is less than 3 ng/mL; the “IC50, IL-21-induced IFNG expression in human whole blood” value is 15 ng/mL; the “IC50, IL-21-induced IL2Rα expression in human whole blood” value stood at 2 ng/mL. Also, in [10], the “IC50, IL-21-induced IL6 expression in human whole blood” value amounted to 5 ng/mL and the “IC50, IL-21-induced PRF1 expression in human whole blood” value turned out to be 7 ng/mL.

B8: AbQ (antibody, human IgG1, V domains shown)
VH: QVQLQESGPGLVKPSETLSLTCAVSGYSISSGYYWGWIRQPPGKGLEWIGSISHTGNTYYNPPLKSRVTISVDTSKNQFSLKLSSVTAADTAVYYCARFMGFGRPEYWGQGTLVTVSS
VL: SSELTQDPAVSVALGQTVRITCQGDSLRTYYASWYQQKPGQAPVLVIYGKHKRPSGIPDRFSGSSSGNTASLTITGAQAEDEADYYCVARSVVGNPHVLFGGGTQLTVL
notes: CDR3 graft, residue limits derived as for m29; also called VH3/VL2; VH3DM/VL2
B8: the “EC50 (read off the curve)” value in assay [2] was approximately 0.8 nM.
